T1: MMP-2 (Homo sapiens (Human), UniProt P08253 110-660)
T1 construct: an active enzyme without signal and propeptide is likely; also called matrix metalloproteinase-2
T1 sequence: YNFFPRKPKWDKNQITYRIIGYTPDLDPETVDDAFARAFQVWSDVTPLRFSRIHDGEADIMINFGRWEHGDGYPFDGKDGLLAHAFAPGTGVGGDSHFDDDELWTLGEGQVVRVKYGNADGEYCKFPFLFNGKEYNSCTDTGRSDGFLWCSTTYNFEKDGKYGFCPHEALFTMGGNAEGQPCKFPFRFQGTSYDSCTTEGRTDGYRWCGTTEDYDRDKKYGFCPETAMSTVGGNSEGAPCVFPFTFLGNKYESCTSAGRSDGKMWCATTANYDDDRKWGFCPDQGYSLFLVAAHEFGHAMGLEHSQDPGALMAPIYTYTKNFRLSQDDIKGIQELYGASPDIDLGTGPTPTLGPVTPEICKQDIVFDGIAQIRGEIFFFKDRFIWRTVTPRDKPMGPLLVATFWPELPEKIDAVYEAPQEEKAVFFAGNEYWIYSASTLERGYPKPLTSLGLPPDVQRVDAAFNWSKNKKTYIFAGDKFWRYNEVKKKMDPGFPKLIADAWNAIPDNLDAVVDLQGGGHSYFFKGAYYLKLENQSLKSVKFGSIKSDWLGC

T2: MMP-7 (UniProt P09237 95-267, limits assumed)
T2 construct: also called matrix metalloproteinase-7
T2 sequence (looked up): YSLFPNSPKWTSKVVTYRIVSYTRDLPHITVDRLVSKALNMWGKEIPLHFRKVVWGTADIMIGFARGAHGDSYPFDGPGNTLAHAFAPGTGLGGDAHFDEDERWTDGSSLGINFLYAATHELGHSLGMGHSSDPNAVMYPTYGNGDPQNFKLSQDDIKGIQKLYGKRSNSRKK


How the values were obtained:
[1] = target: T3, Active MMP-9 enzyme (UniProt P14780 107-707, limits assumed); test: enzyme inhibition, fluoresceinated collagen substrate, Dixon plot
T3 construct: mature; also called matrix metalloproteinase-9; mature MMP-9
T3 sequence (P14780 107-707 limits assumed): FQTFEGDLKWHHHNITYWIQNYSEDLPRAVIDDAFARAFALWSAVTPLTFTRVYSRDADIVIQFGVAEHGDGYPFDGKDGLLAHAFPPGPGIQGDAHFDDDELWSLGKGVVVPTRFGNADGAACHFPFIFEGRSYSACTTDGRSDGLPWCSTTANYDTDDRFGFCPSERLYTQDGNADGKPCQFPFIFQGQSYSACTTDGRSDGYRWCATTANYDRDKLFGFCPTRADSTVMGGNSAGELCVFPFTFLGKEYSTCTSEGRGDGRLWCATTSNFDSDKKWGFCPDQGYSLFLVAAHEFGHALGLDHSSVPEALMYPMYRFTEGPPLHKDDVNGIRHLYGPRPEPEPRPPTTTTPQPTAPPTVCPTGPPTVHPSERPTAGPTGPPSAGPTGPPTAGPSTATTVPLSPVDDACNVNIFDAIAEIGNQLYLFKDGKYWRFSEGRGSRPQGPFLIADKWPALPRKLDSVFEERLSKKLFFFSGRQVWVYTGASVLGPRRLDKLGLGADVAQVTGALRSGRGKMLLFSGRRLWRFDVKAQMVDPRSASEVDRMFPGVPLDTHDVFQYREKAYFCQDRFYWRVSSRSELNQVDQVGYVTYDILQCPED
Description: Two enzymatic assays were performed. The first assay measured the enzymatic hydrolysis of fluoresceinated collagen by MMP-9 as a function of time. […] The protein mixture was added to the collagen substrate, and was quickly mixed. Fluorescence emission intensity at 520 nm was measured as a function of time (excitation wavelength 495 nm) in a Shimadzu RF5301 fluorometer (Lakowicz, 1983). The fluorescein release assay was used to determine the inhibitory constant (Ki) of the peptide inhibitor ([I]) according to Segel (1993) via the use of Dixon plots (1/v vs. [I]), such that: […]

[2] = target: T3, Active MMP-9 enzyme; test: enzyme inhibition, FRET peptide substrate
Description: (§1) The second assay utilized the technique of fluorescence resonance energy transfer (FRET). The substrate peptide (Calbiochem) of seven amino acids was coupled to a carboxyl terminal dinitrophenyl acceptor, and an amino terminal 2-aminobenzo-anthraniloyl (Abz) moiety donor. […] The protein mixture was added to the fluorescent peptide substrate, and was quickly mixed. Fluorescence intensity as a function of time was measured with a Dynex MFX fluorescence microtiter plate reader. Fluorescence intensity was related back to moles of peptide cleaved by producing a standard curve with an Abz containing non-FRET peptide.
(§2) These assays utilized FRET peptides that incorporated specific MMP cleavage sites into their sequence.

[3] = target: T3, Active MMP-9 enzyme; test: SPR (BIACore-X), calculated from ka/kd
Description: MMP-9 at a concentration of 75 ng/μL was coupled to the activated surface at a flow rate of 10 μL per minute for ten minutes. The final surface was inactivated by flowing 1 M ethanolamine-HCl at a rate of 10 μL per minute for five minutes over the sensor surface. […] The association and dissociation phases of the binding isotherms were smoothed by an automated FFT routine prior to modeling rate constants. Binding isotherms were evaluated by simultaneously fitting the forward (kₐ) and reverse (kd) rate constants to:
There was an observed bulk transport effect of approximately 100 response units at the start of the dissociation phase that was not modeled.

[4] = target: T3, Active MMP-9 enzyme; test: isothermal titration calorimetry, 1 mM peptide into 20 µM MMP-9, 20 mM cacodylate pH 6.8, 20 mM NaCl
Description: Isothermal titration calorimetry (ITC) was performed with a VP-ITC instrument from MicroCal, Inc. Titrations were carried out by injecting 5 μL of an inhibitor peptide solution (at concentration ranges from 0.5 mM to 2.0 mM) into the 1.4 mL stirred reaction cell. MMP-9 ranged in concentration from 50 to 80 μM in the cell. Both the inhibitor and the enzyme were in 20 mM sodium cacodylate (pH 5.5-7.0), 40 mM NaCl, or 20 mM Tris-HCl (pH 7.0-7.5), 40 mM NaCl. Titrations were conducted between 20° C. and 40° C. Typical experimental conditions for the titrations were a 10 second injection period followed by a 240 second delay between injections for a total of 40 injections. Blank titrations of inhibitor peptide into buffer were performed in order to correct for heats of dilution and mixing.
The peptide was dissolved in 20 mM cacodylate (pH 6.8), 20 mM NaCl at a final concentration of 1 mM. MMP-9 was dialyzed into the same buffer at a final concentration of 20 μM. A series of standard injections were performed as described above.

[5] = target: T1, MMP-2; test: isothermal titration calorimetry, 1 mM 19-mer into 20 µM MMP-2, 20 mM cacodylate pH 6.8, 10 mM NaCl, 25° C.
[6] = target: T2, MMP-7; test: enzyme inhibition, FRET peptide substrate
Description: as §1, §2

[7] = target: T4, MMP-3 (UniProt P08254 100-477, limits assumed); test: enzyme inhibition, FRET peptide substrate
T4 construct: also called matrix metalloproteinase-3
T4 sequence (P08254 100-477 limits assumed): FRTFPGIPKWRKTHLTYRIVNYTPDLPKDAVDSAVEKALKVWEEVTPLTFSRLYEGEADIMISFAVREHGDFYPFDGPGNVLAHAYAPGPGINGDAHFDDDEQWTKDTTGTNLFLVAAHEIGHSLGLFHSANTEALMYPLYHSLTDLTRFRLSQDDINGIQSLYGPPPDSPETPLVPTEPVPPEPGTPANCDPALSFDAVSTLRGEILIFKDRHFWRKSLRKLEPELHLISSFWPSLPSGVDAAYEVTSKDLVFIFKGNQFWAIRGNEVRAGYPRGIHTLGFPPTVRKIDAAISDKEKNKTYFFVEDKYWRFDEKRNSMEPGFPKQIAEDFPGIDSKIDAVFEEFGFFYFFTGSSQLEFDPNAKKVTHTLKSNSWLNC
Description: as §1, §2

| Binder | Ki [1] | Ki [2] | Ka [3] | Ka [4] | Stoichiometry [4] | ΔH [4] | ΔS [4] | Ka [5] | Stoichiometry [5] | ΔH [5] | ΔS [5] | Ki [6] | Ki [7] |
| --- | --- | --- | --- | --- | --- | --- | --- | --- | --- | --- | --- | --- | --- |
| PRCGNPDVA [9-mer (SEQ ID NO:12) PRCGNPDVA] | 186 µM | 233 µM | – | – | – | – | – | – | – | – | – | – | – |
| NYNFFPRKPK [10-mer (SEQ ID NO:13) NYNFFPRKPK] | 221 µM | 328 µM | – | – | – | – | – | – | – | – | – | – | – |
| H-PRCGNPDVANYNFFPRKPK-OH (Synthesized by Sigma-Genosys, >95% pure by RP-HPLC; Free termini; the acetylated/amidated Ac-19-mer was used only in migration assays; also called 19mer peptide) [19-mer (SEQ ID NO:11) PRCGNPDVANYNFFPRKPK] | 30.3 µM | 45.2 µM | 5.3e+06 M⁻¹ | 1.65e+06 M⁻¹ | 0.975 | -26.1 kcal/mol | -11.6 cal mol^-1 K^-1 | 2.4e+06 M⁻¹ | 0.99 | -15.4 kcal/mol | -21.1 cal mol^-1 K^-1 | 22.8 µM | 6.4 µM |

Source: patent US20040127421A1 (KIMBERLY CLARK WORLDWIDE, published 2004)
